Patent publication US20100298202A1, “BRI POLYPEPTIDES AND REDUCING AB AGGREGATION” (MAYO FOUNDATION FOR MEDICAL EDUCATION AND RESEARCH, priority 2007, published 2010)

Target: Aβ42 (Homo sapiens, UniProt P05067)
Experiment: Aβ42 aggregation with oxidized or reduced BRI polypeptides (native gel/western blot, ELISA-based assay)
Type: biochemical
Conditions: oxidized form (no DTT), 2 μM polypeptide, 1.5 μM Aβ42, 5 hours at 37° C.
Description: FIG. 10. […] BRI polypeptides in DMSO were diluted into 150 mM NaCl, 20 mM Tris-HCl, pH7.4 (TBS) at a final concentration of 2 μM in the absence (OX) or presence (RED) of 2 mM DTT. Mixtures were incubated for 10 minutes at room temperature and then chilled to 0° C. A control samples lacking any BRI polypeptide were prepared identically using DMSO alone. Aβ42 in DMSO then was added to a final concentration of 1.5 μM, and the mixtures divided into two aliquots. One aliquot was incubated for 5 hours at 0° C., and the other was incubated at 37° C. to induce Aβ42 aggregation. At the end of the incubation, all samples were returned to 0° C. to stop further aggregation prior to analysis. Aggregation was assessed either by native gel electrophoresis followed by western blotting (panel A) or by the ELISA-based assay (panel B).

Aβ42, sequence (P05067 672-713 limits assumed): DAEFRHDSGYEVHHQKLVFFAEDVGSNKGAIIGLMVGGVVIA

Substance	Aβ42 aggregation in vitro
Bri24: C-terminal fragment of BRI1 (ITM2A), AIDKCWKIRHFPNEFIVETICICQD (SEQ ID NO: 5)	inhibit Aβ42 aggregation
Bri25: C-terminal fragment of BRI3 (ITM2C), GAICNCNAIRHFENTFVVETLICGVV (SEQ ID NO: 6)	inhibit Aβ42 aggregation
